Experimental findings from article PMC11077057, “Identifying human pre-mRNA cleavage and polyadenylation factors by genome-wide CRISPR screens using a dual fluorescence readthrough reporter” are described below.

Common to all, as to assay: EMSA; 0-1 ug protein; heparin 200 ug/ml added after binding; EMSA: 40 mM Tris pH 8.0, 30 mM KCl, 1 mM MgCl2, 0.01% NP-40, 1 mM DTT, 100 ng/ml yeast tRNA, 20 ul, 30 C 30-60 min, then on ice with heparin 200 ug/ml; 4-6% native PAGE 0.5x TBE, cold room
A general note: Mobility shift assays separate free from complexed probe on a gel.

The target in one series is T1, RPRD1B full length (human, UniProt Q9NQG5 2-326).
T1 sequence: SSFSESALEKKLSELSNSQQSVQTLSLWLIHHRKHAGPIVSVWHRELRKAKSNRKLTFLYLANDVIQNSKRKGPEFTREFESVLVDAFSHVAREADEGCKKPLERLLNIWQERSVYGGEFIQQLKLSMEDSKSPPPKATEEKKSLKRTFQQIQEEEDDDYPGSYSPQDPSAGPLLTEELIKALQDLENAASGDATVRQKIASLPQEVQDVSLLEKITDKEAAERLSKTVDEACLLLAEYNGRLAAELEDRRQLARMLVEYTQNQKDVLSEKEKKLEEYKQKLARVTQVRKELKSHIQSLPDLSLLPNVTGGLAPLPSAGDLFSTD
The settings on record: protein: recombinant; (pET28GST-LIC; 6xHis stated); chain copies: 2.

For a further series, the target named is T2, RPRD1B CID (human, UniProt Q9NQG5 2-135).
T2 sequence: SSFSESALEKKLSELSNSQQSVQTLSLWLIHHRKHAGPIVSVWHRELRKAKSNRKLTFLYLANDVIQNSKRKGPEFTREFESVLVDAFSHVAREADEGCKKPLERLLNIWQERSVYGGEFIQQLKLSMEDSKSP
The settings on record: protein: recombinant; (pET28GST-LIC; 6xHis stated).

For series [1], the target named is T3, RPRD1B coiled-coil domain (human, UniProt Q9NQG5 171-304).
T3 sequence: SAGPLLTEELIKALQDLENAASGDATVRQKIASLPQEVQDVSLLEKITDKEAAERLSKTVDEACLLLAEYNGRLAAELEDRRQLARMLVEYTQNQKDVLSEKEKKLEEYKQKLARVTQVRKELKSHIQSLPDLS
The settings on record: protein: recombinant; (pET28GST-LIC; 6xHis stated); chain copies: 2.

B1: GEMIN7 exon 2 probe (ssRNA)
RNA: GCGGCUUCUCUGUUGACAACUCAGCUGGUUCCACACCCUGGCAAUUGUGAAGAGUUGGCCAAAUGUUUGUCCACUGAGCUGAUCUCCUCUCUGGAGCACC
Consider B1, for which the binding result with RPRD1B full length is “no binding”.

B2: GEMIN7 3' UTR probe (ssRNA)
RNA: AUUUGAUUUCAUUUUGGGGCGGGCGGUGGCUCGUGCUGGGUCACGUGGUCGUGCCAAGCGCUCCUCCUGUUGCCCCACCUGUGGUUGCUGUGGACUGCAC
Consider B2, for which the binding result with RPRD1B full length is “binds”; with RPRD1B CID, “binds”; in series [1], “no binding”.
